Measurements reported in article PMC4004224 (Journal of the American Chemical Society, 2014).

Target: T1, recombinant human Rnase inhibitor (human, UniProt P13489 1-461)
T1 sequence (looked up): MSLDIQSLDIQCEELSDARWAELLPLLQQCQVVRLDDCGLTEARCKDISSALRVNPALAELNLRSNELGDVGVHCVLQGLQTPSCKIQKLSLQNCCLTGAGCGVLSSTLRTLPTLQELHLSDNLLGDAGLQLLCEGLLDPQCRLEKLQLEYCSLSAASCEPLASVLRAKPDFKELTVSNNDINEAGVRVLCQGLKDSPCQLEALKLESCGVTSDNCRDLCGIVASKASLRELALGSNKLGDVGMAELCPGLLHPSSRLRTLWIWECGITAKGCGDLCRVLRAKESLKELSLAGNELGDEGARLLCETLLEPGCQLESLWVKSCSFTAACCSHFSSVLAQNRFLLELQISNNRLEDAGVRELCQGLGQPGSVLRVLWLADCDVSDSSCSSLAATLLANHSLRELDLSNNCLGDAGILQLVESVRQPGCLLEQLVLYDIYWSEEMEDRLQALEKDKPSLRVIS

B1: pyronin-conjugated bovine Rnase A (enzyme, UniProt P61823 27-150, looked up)
chain: KETAAAKFERQHMDSSTSAASSSNYCNQMMKSRNLTKDRCKPVNTFVHESLADVQAVCSQKNVACKNGQTNCYQSYSTMSITDCRETGSSKYPNCAYKTTQANKHIIVACEGNPYVPVHFDASV
modifications: lysines conjugated to the fluorinated pyronin from bromopyronin 5; 0.3-0.6 fluorophores per protein
Question: Does B1 bind?
Answer: binds
